Here are results for five substances from publication PMC5664961.

What is called stoichiometry N is the number of molecules, sites or subunits per partner or assembly. What is called Kd is the concentration at which binding is half-saturated.

Experiment [1] concerns the target human SHKBP1 BTB domain (residues G18-S120) (human) (UniProt Q8TBC3). The experiment can be described thus: SEC; KCTD protein alone and mixed with Cul3 NTD at a molar ratio of 1 : 1; UV 280 nm traces; injected at 50 µM; 50 mM HEPES pH 7.5, 150 mM NaCl, 1 mM TCEP. In general terms: SEC sorts molecules by how far they enter the pores of the column.
The target of experiment [2] is 6xHis-tagged KCTD17 BTB + CTD multi-domain construct (residues G20-Q220), tag kept (human). The experiment can be described thus: SEC; KCTD17 constructs alone, 6xHis-tagged or tag-cleaved; UV 280 nm traces; various running buffers (pH, salt).
Experiment [3] has as its target KCTD17 BTB + CTD multi-domain construct (residues G20-Q220), tag cleaved (human). The experiment can be described thus: SEC; KCTD protein alone and mixed with Cul3 NTD at a molar ratio of 1 : 1; UV 280 nm traces; injected at 50 µM; 50 mM HEPES pH 7.5, 150 mM NaCl, 1 mM TCEP.
Experiment [4] deals with human Cul3 N-terminal domain (NTD, residues M1-L388) with the engineered mutations I342R and L346D (human) (UniProt Q13618). The experiment is described as above.
The target of experiment [5] is KCTD17 BTB + CTD multi-domain construct (residues G20-Q220) (human). In words: ITC; KCTD17 in the cell, titrated with Cul3 from the syringe; 15°C; 50 mM HEPES pH 7.5, 150 mM NaCl, 1 mM TCEP, 5% glycerol; single-binding site model. For orientation: In ITC the heat of successive injections is recorded.
In experiment [6] the target is T1, KCTD17 BTB domain (residues G20-K131) (human).
T1 sequence (Q8N5Z5 20-131, looked up): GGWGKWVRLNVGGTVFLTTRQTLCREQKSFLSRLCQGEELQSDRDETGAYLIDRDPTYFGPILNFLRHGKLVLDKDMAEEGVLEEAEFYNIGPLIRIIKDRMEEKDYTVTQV
The experiment is described as above.

For experiment [7], the target named is T2, KCTD17 BTB domain (residues G20-K131) as used in ITC (human).
T2 sequence (Q8N5Z5 20-131, looked up): T1 sequence (Q8N5Z5 20-131, looked up)
In words: ITC; KCTD17 in the cell, titrated with Cul3 NTD from the syringe; 15°C; 50 mM HEPES pH 7.5, 150 mM NaCl, 1 mM TCEP, 5% glycerol; single-binding site model.

The target in experiment [8] is 6His-KCTD17 BTB domain (residues G20-K131), N-terminal hexahistidine tag kept (human). The experiment can be described thus: crystal structure; BTB domains alone, sitting-drop vapour diffusion at 20 and 4°C, data at 100 K.
The target is the same in experiment [9]. The experiment is described as above. This is another data set of the same source.
The target is the same in experiment [10]. The experiment can be described thus: SEC-MALS; BTB domains alone, injected at 50 µM; Shodex KW-803; 50 mM HEPES pH 7.5, 150 mM NaCl, 1 mM TCEP.
For experiment [11] the target is unchanged. In words: native MS; 6His-KCTD17 at 2 mg/ml exchanged into 50 mM ammonium acetate pH 6.5; electrospray, Agilent 6530 QTOF.
Experiment [12] has the same target. In words: SAXS; BTB domains alone, ~750 µM monomer; 50 mM HEPES, 150 mM NaCl, 0.5 mM TCEP; curves compared with those calculated from the crystal structures.

human Cul3 N-terminal domain (NTD, residues M1-L388) with the engineered mutations I342R and L346D (human), sequence (Q13618 1-388 I342R/L346D): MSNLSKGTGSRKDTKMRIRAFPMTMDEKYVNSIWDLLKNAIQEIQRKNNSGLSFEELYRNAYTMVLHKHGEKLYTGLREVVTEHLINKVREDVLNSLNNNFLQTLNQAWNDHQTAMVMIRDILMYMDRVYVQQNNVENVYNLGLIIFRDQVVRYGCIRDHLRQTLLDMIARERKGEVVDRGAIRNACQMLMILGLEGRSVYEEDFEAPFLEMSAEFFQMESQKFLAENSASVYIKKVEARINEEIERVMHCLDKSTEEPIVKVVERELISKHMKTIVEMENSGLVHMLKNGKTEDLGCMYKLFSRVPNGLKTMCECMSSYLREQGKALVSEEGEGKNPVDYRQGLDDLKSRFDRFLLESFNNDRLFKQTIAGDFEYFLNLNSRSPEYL

“human SHKBP1 BTB domain (residues G18-S120) (from UniProt Q8TBC3 18-120) (domain or fragment)”: the stoichiometry N in experiment [1] came out at 5.
For the substance “6xHis-tagged KCTD17 BTB + CTD multi-domain construct (residues G20-Q220), tag kept (domain or fragment)”, the stoichiometry N in experiment [2] worked out at 60.
For “KCTD17 BTB + CTD multi-domain construct (residues G20-Q220), tag cleaved (domain or fragment)”, in experiment [3], the stoichiometry N came out at 5. Besides, the stoichiometry N (KCTD : Cul3 (5 : 5)) in experiment [4] was determined as 1.
Take “human Cul3 N-terminal domain (NTD, residues M1-L388) with the engineered mutations I342R and L346D (from UniProt Q13618 1-388) (domain or fragment)”: in experiment [5], the Ka is 8.66e+07 M⁻¹, the Kd stood at 12 nM and the stoichiometry N is 2.3. This substance came in with a Ka in [6] of 1.41e+08 M⁻¹. Moreover, the Kd in [7] was 7 nM.
Take “6His-KCTD17 BTB domain (residues G20-K131), N-terminal hexahistidine tag kept (domain or fragment)”: the stoichiometry N in experiment [8] was 5; in experiment [9], 60; in experiment [10], 60; in experiment [11] it was 60; in experiment [12], 60.
